# According to the nanobody polyreactivity screen of Harvey et al. (2022):
# Experiment: yeast display, Sf9 membrane polyspecificity reagent, FACS + sequencing; frameworks hold sequencing errors
# How it was run: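 After 36–48 hours of galactose induction, yeast (Saccharomyces cerevisiae BJ5465) displaying a synthetic nanobody library were stained at 4 °C for 1 hour with 10% biotinylated, detergent-solubilized Sf9 membrane reagent. Streptavidin microbeads enriched the stained cells before FACS sorting into low and high (top ~1%) gates on anti-HA and streptavidin fluorescence. Each clone's polyreactivity label reflects its gate of origin.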
row,Sequence,polyreactivity (PSR sort gate)
1,QVQLVESGGGLVQAGGSLRLSCAASGITFGRNTMGWYRQAPGKERELVAAIDSGGNTYADSVKGRFTISRDNAKNTVYLQMNSLKPEDTAVYYCNARSYYGYGRYDYWGQGTQVTVSS,low polyreactivity
2,QVQLVESGGGLVQAGGSLRLSCAASGITFGRNTMGWYRQAPGKERELVAAIDSGRNTYADSVKGRFTISRDNAKNPVYLQMNSLKPEYTAVYYCNADKSNFVRGYYWGQGTQVTVSS,low polyreactivity
3,QVQLVESGGGLVQAGGSLRLSCAASGITFGRNTMGWYRQAPGKERELVASISYSGTTTYYADSVKGRFTISRDNAKNTVYLQMNSLKPEDTAVYYCNKRWRYYDMDYWGQGTQVTVSS,low polyreactivity
4,QVQLVESGGGLVQAGGSLRLSCAASGITFGRNTMGWYRQAPGKESELVAAIDSGGNTYADSVKGRFTISRDNAKNTVYLQMNSLKPEDTAVYYCAADNSVGEYQRVDYDYWGQGTQVTVSS,low polyreactivity
5,QVQLVESGGGLVQAGGSLRLSCAASGITFGSYAMGGYRQAPGKERELVAAITRRGDNTYYADSVKGRFTISRDNAKNTVYLQMNSLKPEDTAVYYCNAAKGGRYPDYDYWGQGTQVTVSS,high polyreactivity
6,QVQLVESGGGLVQAGGSLRLSCAASGITFGSYAMGWYRQAPGKERELVAAISRSGGSTYYADSVKGRFTISRDNAKNTVYLQMNSLKPEDTAVYYCAVRYVYYREGDYWGQGTQVSVSS,high polyreactivity
7,QVQLVESGGGLVQAGGSLRLSCAASGITFGSYAMGWYRQAPGKERELVAAISRSGGSTYYADSVKGRFTISRDNEKNTVYLQMNSLKPEDTAVYYCAVRYVYYREGDYWGQGTQVTVSS,high polyreactivity
8,QVQLVESGGGLVQAGGSLRLSCAASGITFGSYAMGWYRQAPGKERELVAAITWRGGSTFYADSVKGRFTISRDNAKNTVYLQMNSLKPDDTAVYYCAATLTKYLPRYYWGQGTQVTVSS,low polyreactivity
9,QVQLVESGGGLVQAGGSLRLSCAASGITFGWNAMGWYRQAPGKEWELVAAITEDGYSTYYADSVKGRFTISRDNEKNTVYLQMNSLKPEDTAVYYCAAEYYDVYTYVQYDSWGQGTQVTVSS,high polyreactivity
10,QVQLVESGGGLVQAGGSLRLSCAASGITFGWYAMGWYRQAPGKERELVAAISTGSSTYYADSVKGRFTISRDNAKNTVYLQMNSLKPEDTAVYYCAAYYGISFDYWGQGSQVTVSS,high polyreactivity
11,QVQLVESGGGLVQAGGSLRLSCAASGITFGYNAMGWYIQAPGKERELVASISYSGDSTYYADSVKGRFTISRDNAKNTVYLLMNSLKPEDTAVYYCNVRNRPGGEINDYDYWGQGTQVTVSS,low polyreactivity
12,QVQLVESGGGLVQAGGSLRLSCAASGITFGYYAMGWYRQAPGKERELVAAISRTGSTTYYADSVKGRFTISRDNAKNTVYLQMNRLKPEDTAVYYCAARRWGTNGGGSPMYYWGQGTQVTVSS,high polyreactivity
13,QVQLVESGGGLVQAGGSLRLSCAASGITFGYYAMGWYRQAPGKERENVAAITRRGGSTYYADSVKGRFTISRDNAKNTVYLQMNSLKPEDTAVYYCAADSYRYWFIEDNYWGQGTQVTVSS,high polyreactivity
14,QVQLVESGGGLVQAGGSLRLSCAASGITFHPYAKGWYRQAPGNEREFVAVISFRGGRTYYADSVKGRFTISRDNAKNNVYLQMNSLKPEDTAVYYCAAQYVSRRYSRYNYWGQGTQVTVSS,high polyreactivity
15,QVQLVESGGGLVQAGGSLRLSCAASGITFIGYAMGWYRQAPGKERELVASITSGANTNYADSVKGRFTISRDNAKNTVYLQMNSLKPEDTAVYYCAAPEHGTYANILGEPLDYWGQGTQVTVSS,low polyreactivity
16,QVQLVESGGGLVQAGGSLRLSCAASGITFITYTMGWYRQEPGKERELVAGISSGGSTYYADSVKGRFTISRDNAKNTVYLQMNSLKPEDTAVYYCAAEFAGWGYYWFDYWGQGTQVTVSS,high polyreactivity
17,QVQLVESGGGLVQAGGSLRLSCAASGITFITYVMGWYRQAPGKERELVAAISLRGGRTSYADSVKGRFTISRDNAKNTVYLQMNSLKPEDTAVYYCAARAYYTRYDYWGQGTQVTVSS,high polyreactivity
18,QVQLVESGGGLVQAGGSLRLSCAASGITFIYNAMGWYRQAPGKERELVATINDGGSTNYADSVKGRFTISRDNAKNTVYLQMNSLKPEDTAVYYCNADGGPYGAVGKSDYWGQGTQVTVSS,low polyreactivity
19,QVQLVESGGGLVQAGGSLRLSCAASGITFIYYDMGWYRQAPGKEREFVAAINYRGTSTYYADSVKGRFTISRDNAKNTVYLQMNSLKPEDTAVYYCAARLRQTGGDRLGYWGQGTQVTVSS,high polyreactivity
20,QVQLVESGGGLVQAGGSLRLSCAASGITFKFNAMGWYRQAPGKERELVAAISVRGGRTYYADSVKGRFTISRDNAKNTVYLQMNSLKPEDTAVYYCAATDWFYSYYLGYGYGYWGQGTQVTVSS,high polyreactivity
21,QVQLVESGGGLVQAGGSLRLSCAASGITFKPNAMGWYRQAPGKERELVAALDTGGSTNYADSVKGRFTISRDNEKNTVYLQMNSLKPEDTEVYYCAAPYQDRDLHVSYSTYEGGYWGQGTQVTVSS,low polyreactivity
22,QVQLVESGGGLVQAGGSLRLSCAASGITFKYNAMGWYRQAPGKERELVAAISSGGNTYYADSVKGRFTISRDNAKNTVYLQMNSLKPEDTAVYYCAAPSYDTLWHDYWGQGTQVTVSS,low polyreactivity

row,Sequence,polyreactivity (PSR sort gate)
1,QVQLVESGGGLVQAGGSLRLSCAASGITFKYYAMGWYRQAPGKERELVAAISRGGGSTYYADSVKGRFTISRDNAKNTVYLQMNSLKPEDTAVYYCNAVFYSFIQSDYWGQGTQVTVSS,high polyreactivity
2,QVQLVESGGGLVQAGGSLRLSCAASGITFKYYAMGWYRQAPGKESELVAAISRSGSSTYYADSVKGRFTISRDNAKNTVYLQINSLTPEDTAVYYCAADWKSKRTDKYDSWGQGTQVTVSS,high polyreactivity
3,QVQLVESGGGLVQAGGSLRLSCAASGITFKYYTMGWYRQAPGKERELVAAISRSGGSTYYADSVKGRFTISRDNAKNTVYLLMNSLKPEDTAVYYCAGERGAYRGVTFTYGYWGQGTQVTVSS,high polyreactivity
4,QVQLVESGGGLVQAGGSLRLSCAASGITFKYYVMGWYRQAPGKERELVARITRRSGSTYYADSVKGRFTISRDNAKNTVYLQMNSLKPEDTAVYYCAASPHSRSDYGYWGQGTQVTVSS,high polyreactivity
5,QVQLVESGGGLVQAGGSLRLSCAASGITFLNYAMGWSRQEPGKERELVAAITSGGSTYYADSVKGRFTITRDNAKNTVYLQMNSLKPEDTAVYYCAADGDSLPYSFWWQIRLDYWGQGTVVTVSS,low polyreactivity
6,QVQLVESGGGLVQAGGSLRLSCAASGITFLRYAMGWYRQAPGKERELVATIRTGGTTNYADSVKGRFTISRDNAKNTVYLLMISLKPEDTAVYYCAVDWSRQAHKFNYWGQGTQVTVSS,high polyreactivity
7,QVQLVESGGGLVQAGGSLRLSCAASGITFLVYVMGWYIQAPGKERELVAAISSGGSTYYADSVKGRFTISRDKAKNTVYLQMNSLKPEDTAVYYCAAERKLYGLYDYWGQGTQVTVSS,low polyreactivity
8,QVQLVESGGGLVQAGGSLRLSCAASGITFLWNVMGWYRQAPGKERELVATITSIGGITNYADSVKGRFTISRDNAKNTVYLQMNSLKPEDTAVYYCARDDRDIRGESGREGFLYDYWGQGTQVTVSS,low polyreactivity
9,QVQLVESGGGLVQAGGSLRLSCAASGITFNPNAMGWYRQAPGKERELVAVITYRGGSTYYADSVKGRFTISRDNAKNTVYLQMNSLKPEDTAVYYCAAQYIGWHLYWYDYWGQGTQVTVSS,low polyreactivity
10,QVQLVESGGGLVQAGGSLRLSCAASGITFNRYSMGWYRQAPGKERELVARISLRGGNTYYADSVKGRFTISRDNAKNTVYLQMNSLKPEDPAVYYCNADLYRQYASRYHYWGQGTQVTVSS,high polyreactivity
11,QVQLVESGGGLVQAGGSLRLSCAASGITFNSYAMGWYRQAPGKERELVAAISGSGSSTYYADSVKGRFTISRDNAKNTVYLQMNSLKPEDTAVYYCAATGYSSWTYYTHEYWGQGTQVTVSS,low polyreactivity
12,QVQLVESGGGLVQAGGSLRLSCAASGITFNSYAMGWYRQAPGKERELVAAISWSGGSTYYADSVKGRFTISRDNAKNTVYLQMNSLKPEDTAVYYCNAEYRYYQKTPGRYTNVEYDYWGQGTQVTVSS,low polyreactivity
13,QVQLVESGGGLVQAGGSLRLSCAASGITFNTYAMGWYRHAPGKERELVAVITWSDGGTYYADSVKGRFTISRDNAKNTVYLQMNSLKPEDTAVYYCAADYDWGYDYWGQGTQVTVSS,low polyreactivity
14,QVQLVESGGGLVQAGGSLRLSCAASGITFNTYAMGWYRQAPGKERELVAVITWSDGGTYYADSVKGRFTISRDNAKNTVYLQMNSLKPEDTAVYYCAADYYWGYDYWGQGTQVTVSS,low polyreactivity
15,QVQLVESGGGLVQAGGSLRLSCAASGITFPANAMGWYRQAPGKERELVADISESDGSTYYADSVKGRFTISLDNAKNTVYLQMNSLKPEDTAVYYCNAEWTSFDWGQGTQVTVSS,low polyreactivity
16,QVQLVESGGGLVQAGGSLRLSCAASGITFPANAMGWYRQAPGKQWELVAAISSYGGSTYYADSVKGRFTISRDNEKNTVDLQMNSLKPEDTAVYYCAAYLSSLGRKYYYWGQGTQVTVSS,high polyreactivity
17,QVQLVESGGGLVQAGGSLRLSCAASGITFPRYTMGWYRQAPGTERELVAAISSGGSTYYADSVKGRFTISRDNAKNTVYLQMNSLKPEDTAVYYCNAEVPYWYYIYDYWGQGTQVTVSS,high polyreactivity
18,QVQLVESGGGLVQAGGSLRLSCAASGITFPRYVMGWYRQAPGKEREFVAAINYSGGRTYYADSVKGRFTISRDNAKNTVYLQMNSLKPEDTAVYYCAVDLHVWPFWYDYWGQGTQVTVSS,high polyreactivity
19,QVQLVESGGGLVQAGGSLRLSCAASGITFPYYAMGWYRQAPGKERELVAAISLSGGTTYYADSVKGRFTISRDNAKNTVYLQMNSLKPDDTAVYYCAARSSKFVTSNRYDYWGQGTQVTVSS,high polyreactivity
20,QVQLVESGGGLVQAGGSLRLSCAASGITFPYYAMGWYRQAPGKERELVAAITTGGGSTYYADSVKGRFTISRDNAKNTVYLQMNSLKPEDTAVYYCAAANLRARTGPRRGYEYWGQGTQVTVSS,high polyreactivity
21,QVQLVESGGGLVQAGGSLRLSCAASGITFPYYVMGWYRQAPGKERELVAAISKSVGRTYYADSVKGRFTISRDNAKNTVYLQMNSLKPEDTAVYYCAAYSSYYVHRFQHYDYWGQGTQVTVSS,high polyreactivity
